T1: DIP-α (Drosophila melanogaster)
T1 chain: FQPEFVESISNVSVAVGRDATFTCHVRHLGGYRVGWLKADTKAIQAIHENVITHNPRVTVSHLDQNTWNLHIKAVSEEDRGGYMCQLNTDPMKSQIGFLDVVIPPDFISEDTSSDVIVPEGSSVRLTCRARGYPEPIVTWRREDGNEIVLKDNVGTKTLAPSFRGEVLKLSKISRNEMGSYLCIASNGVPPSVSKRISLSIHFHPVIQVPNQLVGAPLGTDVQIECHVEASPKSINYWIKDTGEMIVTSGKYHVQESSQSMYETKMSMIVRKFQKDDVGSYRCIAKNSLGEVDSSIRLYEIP


Target: T1, DIP-α
Experiment: SPR

Row | Kd | Binder
1 | > 300 µM | Dpr11 K31V (domain or fragment) PYLDGYATSNVTTQIGTHAYLPCRVKQLGNKSVSWIRLRDGHILTVDRAVFIADQRFLAIKQPDKYWTLQIKYVQARDAGSYECQVSTEPVVSARVQLQVVVPRTEILGEPDRYVKAGSNVVLRCIVRGALEPPTFIMWYHGAEQLAADSRRHRTQLDPNLPEASGEGQSTIGSLIIESAKKRDTGNYTCSPSNSPSATVT
2 | > 300 µM | Dpr11 K31V,E29Q (domain or fragment) PYLDGYATSNVTTQIGTHAYLPCRVKQLGNKSVSWIRLRDGHILTVDRAVFIADQRFLAIKQPDKYWTLQIKYVQARDAGSYECQVSTQPVVSARVQLQVVVPRTEILGEPDRYVKAGSNVVLRCIVRGALEPPTFIMWYHGAEQLAADSRRHRTQLDPNLPEASGEGQSTIGSLIIESAKKRDTGNYTCSPSNSPSATVT
3 | > 500 µM | Dpr11 (domain or fragment) PYLDGYATSNVTTQIGTHAYLPCRVKQLGNKSVSWIRLRDGHILTVDRAVFIADQRFLAIKQPDKYWTLQIKYVQARDAGSYECQVSTEPKVSARVQLQVVVPRTEILGEPDRYVKAGSNVVLRCIVRGALEPPTFIMWYHGAEQLAADSRRHRTQLDPNLPEASGEGQSTIGSLIIESAKKRDTGNYTCSPSNSPSATVT
4 | 29.2 µM | Dpr10 V31K Q29E (domain or fragment) YQRQSVSNNNHNNAEAKPTHAPPSHYPHGHKWNEPYFDLTMPRNITSLVGKSAYLGCRVKHLGNKTVAWIRHRDLHILTVGTYTYTTDQRFQTSYHRDIDEWTLQIKWAQQRDAGVYECQISTEPKRSYSVNLNIVDLIDAETSDIMQQYYNDDAFYIAENRVYQSSNDEFAGMFGPIQTVAVPTATILGGPDLYVDKGSTINLTCIIKFSPEPPTHIFWYHQDKVLSEETSGGRLKFKTIKSEETKSILLIYDADLLHSGKYSCYPSNTEIASIR
5 | 11.3 µM | Dpr10 V31K (domain or fragment) YQRQSVSNNNHNNAEAKPTHAPPSHYPHGHKWNEPYFDLTMPRNITSLVGKSAYLGCRVKHLGNKTVAWIRHRDLHILTVGTYTYTTDQRFQTSYHRDIDEWTLQIKWAQQRDAGVYECQISTQPKRSYSVNLNIVDLIDAETSDIMQQYYNDDAFYIAENRVYQSSNDEFAGMFGPIQTVAVPTATILGGPDLYVDKGSTINLTCIIKFSPEPPTHIFWYHQDKVLSEETSGGRLKFKTIKSEETKSILLIYDADLLHSGKYSCYPSNTEIASIR
6 | 1.3 µM | Dpr10 (domain or fragment) YQRQSVSNNNHNNAEAKPTHAPPSHYPHGHKWNEPYFDLTMPRNITSLVGKSAYLGCRVKHLGNKTVAWIRHRDLHILTVGTYTYTTDQRFQTSYHRDIDEWTLQIKWAQQRDAGVYECQISTQPVRSYSVNLNIVDLIDAETSDIMQQYYNDDAFYIAENRVYQSSNDEFAGMFGPIQTVAVPTATILGGPDLYVDKGSTINLTCIIKFSPEPPTHIFWYHQDKVLSEETSGGRLKFKTIKSEETKSILLIYDADLLHSGKYSCYPSNTEIASIR
